What is called Kd is the equilibrium constant for the complex coming apart. Low readings indicate a tighter complex, high ones a looser complex.

First the molecules themselves.
T1: EsCas13d, nuclease-dead (Eubacterium siraeum, UniProt B0MS50, R295A;H300A;R849A;H854A)
T1 sequence: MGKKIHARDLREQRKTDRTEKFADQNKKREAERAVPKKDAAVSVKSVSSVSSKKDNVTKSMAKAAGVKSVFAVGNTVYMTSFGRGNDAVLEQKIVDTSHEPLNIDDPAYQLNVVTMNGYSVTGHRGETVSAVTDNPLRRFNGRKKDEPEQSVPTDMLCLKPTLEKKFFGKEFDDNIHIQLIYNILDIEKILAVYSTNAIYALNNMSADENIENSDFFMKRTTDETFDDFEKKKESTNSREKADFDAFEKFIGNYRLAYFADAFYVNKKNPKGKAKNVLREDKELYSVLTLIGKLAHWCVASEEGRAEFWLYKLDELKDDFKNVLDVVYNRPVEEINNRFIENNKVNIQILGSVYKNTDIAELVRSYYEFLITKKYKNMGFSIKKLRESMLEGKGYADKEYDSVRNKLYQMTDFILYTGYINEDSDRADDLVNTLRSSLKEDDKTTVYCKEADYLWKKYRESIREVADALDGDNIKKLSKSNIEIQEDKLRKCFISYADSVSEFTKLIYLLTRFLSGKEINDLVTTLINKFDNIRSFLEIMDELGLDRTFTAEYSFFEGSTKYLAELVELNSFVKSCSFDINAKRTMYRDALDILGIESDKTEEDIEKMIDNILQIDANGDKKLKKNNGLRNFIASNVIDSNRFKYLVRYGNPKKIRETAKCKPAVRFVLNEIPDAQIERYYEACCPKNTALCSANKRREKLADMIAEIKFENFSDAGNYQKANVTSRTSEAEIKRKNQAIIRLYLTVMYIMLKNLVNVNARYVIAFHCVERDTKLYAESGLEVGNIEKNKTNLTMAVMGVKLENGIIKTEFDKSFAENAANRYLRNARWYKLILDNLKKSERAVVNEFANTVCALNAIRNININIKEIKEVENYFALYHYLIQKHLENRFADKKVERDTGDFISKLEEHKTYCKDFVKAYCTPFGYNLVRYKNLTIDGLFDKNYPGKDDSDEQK

B1: target 1 G5U,C6G (mixed)
RNA 1: CACCCGUGCAAAAAUGCAGGGGUCUAAAACUGAGCGGAUAACCUCUCUAUGG
RNA 2: GGGAAUGGAUCCACAUCUACGAAUUCGUACCAUAGAGAGGUUAUCGUCUCACCGAGAUCGGAAGAGCACACGU
B2: target 1 C6U,A14U (mixed)
RNA 1: CACCCGUGCAAAAAUGCAGGGGUCUAAAACUGAGCGGAUAACCUCUCUAUGG
RNA 2: GGGAAUGGAUCCACAUCUACGAAUUCGUACCAUAGAGUGGUUAUCUGCUCACCGAGAUCGGAAGAGCACACGU
B3: target 2 MT 5'PFS AUA 3'PFS CAG (mixed)
RNA 1: CACCCGUGCAAAAUUGCAGGGGUCUAAAACCUUCUCCAAAUUGUUUCAUCCU
RNA 2: GGGAAUGGAUCCACAUCUACGAAUUCAUAAGGAUGAAACAAUUUGGAGAAGCAGAGAUCGGAAGAGCACACGU
B4: target 2 MT 5'PFS UAA 3'PFS AGA (mixed)
RNA 1: CACCCGUGCAAAAUUGCAGGGGUCUAAAACCUUCUCCAAAUUGUUUCAUCCU
RNA 2: GGGAAUGGAUCCACAUCUACGAAUUCUAAAGGAUGAAACAAUUUGGAGAAGAGAAGAUCGGAAGAGCACACGU
B5: target 2 MT 5'PFS UAA 3'PFS AGG (mixed)
RNA 1: CACCCGUGCAAAAUUGCAGGGGUCUAAAACCUUCUCCAAAUUGUUUCAUCCU
RNA 2: GGGAAUGGAUCCACAUCUACGAAUUCUAAAGGAUGAAACAAUUUGGAGAAGAGGAGAUCGGAAGAGCACACGU
B6: target 2 MT 5'PFS AUA 3'PFS CAC (mixed)
RNA 1: CACCCGUGCAAAAUUGCAGGGGUCUAAAACCUUCUCCAAAUUGUUUCAUCCU
RNA 2: GGGAAUGGAUCCACAUCUACGAAUUCAUAAGGAUGAAACAAUUUGGAGAAGCACAGAUCGGAAGAGCACACGU
B7: target 2 MT 5'PFS UAU 3'PFS UAG (mixed)
RNA 1: CACCCGUGCAAAAUUGCAGGGGUCUAAAACCUUCUCCAAAUUGUUUCAUCCU
RNA 2: GGGAAUGGAUCCACAUCUACGAAUUCUAUAGGAUGAAACAAUUUGGAGAAGUAGAGAUCGGAAGAGCACACGU
B8: target 2 MT 5'PFS UAC 3'PFS CGG (mixed)
RNA 1: CACCCGUGCAAAAUUGCAGGGGUCUAAAACCUUCUCCAAAUUGUUUCAUCCU
RNA 2: GGGAAUGGAUCCACAUCUACGAAUUCUACAGGAUGAAACAAUUUGGAGAAGCGGAGAUCGGAAGAGCACACGU
B9: target 2 MT 5'PFS GGU 3'PFS UGC (mixed)
RNA 1: CACCCGUGCAAAAUUGCAGGGGUCUAAAACCUUCUCCAAAUUGUUUCAUCCU
RNA 2: GGGAAUGGAUCCACAUCUACGAAUUCGGUAGGAUGAAACAAUUUGGAGAAGUGCAGAUCGGAAGAGCACACGU
B10: target 2 MT 5'PFS CUG 3'PFS UCG (mixed)
RNA 1: CACCCGUGCAAAAUUGCAGGGGUCUAAAACCUUCUCCAAAUUGUUUCAUCCU
RNA 2: GGGAAUGGAUCCACAUCUACGAAUUCCUGAGGAUGAAACAAUUUGGAGAAGUCGAGAUCGGAAGAGCACACGU
B11: target 2 MT 5'PFS GUC 3'PFS AGU (mixed)
RNA 1: CACCCGUGCAAAAUUGCAGGGGUCUAAAACCUUCUCCAAAUUGUUUCAUCCU
RNA 2: GGGAAUGGAUCCACAUCUACGAAUUCGUCAGGAUGAAACAAUUUGGAGAAGAGUAGAUCGGAAGAGCACACGU
B12: target 2 MT 5'PFS AUA 3'PFS CAA (mixed)
RNA 1: CACCCGUGCAAAAUUGCAGGGGUCUAAAACCUUCUCCAAAUUGUUUCAUCCU
RNA 2: GGGAAUGGAUCCACAUCUACGAAUUCAUAAGGAUGAAACAAUUUGGAGAAGCAAAGAUCGGAAGAGCACACGU
B13: target 2 MT 5'PFS CUG 3'PFS UCU (mixed)
RNA 1: CACCCGUGCAAAAUUGCAGGGGUCUAAAACCUUCUCCAAAUUGUUUCAUCCU
RNA 2: GGGAAUGGAUCCACAUCUACGAAUUCCUGAGGAUGAAACAAUUUGGAGAAGUCUAGAUCGGAAGAGCACACGU
B14: target 2 MT 5'PFS GUC 3'PFS CGA (mixed)
RNA 1: CACCCGUGCAAAAUUGCAGGGGUCUAAAACCUUCUCCAAAUUGUUUCAUCCU
RNA 2: GGGAAUGGAUCCACAUCUACGAAUUCGUCAGGAUGAAACAAUUUGGAGAAGCGAAGAUCGGAAGAGCACACGU
B15: target 2 MT 5'PFS GUC 3'PFS CGU (mixed)
RNA 1: CACCCGUGCAAAAUUGCAGGGGUCUAAAACCUUCUCCAAAUUGUUUCAUCCU
RNA 2: GGGAAUGGAUCCACAUCUACGAAUUCGUCAGGAUGAAACAAUUUGGAGAAGCGUAGAUCGGAAGAGCACACGU
B16: target 2 MT 5'PFS AAU 3'PFS ACU (mixed)
RNA 1: CACCCGUGCAAAAUUGCAGGGGUCUAAAACCUUCUCCAAAUUGUUUCAUCCU
RNA 2: GGGAAUGGAUCCACAUCUACGAAUUCAAUAGGAUGAAACAAUUUGGAGAAGACUAGAUCGGAAGAGCACACGU
B17: target 2 MT 5'PFS AUA 3'PFS ACU (mixed)
RNA 1: CACCCGUGCAAAAUUGCAGGGGUCUAAAACCUUCUCCAAAUUGUUUCAUCCU
RNA 2: GGGAAUGGAUCCACAUCUACGAAUUCAUAAGGAUGAAACAAUUUGGAGAAGACUAGAUCGGAAGAGCACACGU
B18: target 2 MT 5'PFS GGU 3'PFS UGU (mixed)
RNA 1: CACCCGUGCAAAAUUGCAGGGGUCUAAAACCUUCUCCAAAUUGUUUCAUCCU
RNA 2: GGGAAUGGAUCCACAUCUACGAAUUCGGUAGGAUGAAACAAUUUGGAGAAGUGUAGAUCGGAAGAGCACACGU
B19: target 2 MT 5'PFS GUC 3'PFS CGG (mixed)
RNA 1: CACCCGUGCAAAAUUGCAGGGGUCUAAAACCUUCUCCAAAUUGUUUCAUCCU
RNA 2: GGGAAUGGAUCCACAUCUACGAAUUCGUCAGGAUGAAACAAUUUGGAGAAGCGGAGAUCGGAAGAGCACACGU
B20: target 2 MT 5'PFS UAC 3'PFS CGC (mixed)
RNA 1: CACCCGUGCAAAAUUGCAGGGGUCUAAAACCUUCUCCAAAUUGUUUCAUCCU
RNA 2: GGGAAUGGAUCCACAUCUACGAAUUCUACAGGAUGAAACAAUUUGGAGAAGCGCAGAUCGGAAGAGCACACGU
B21: target 2 MT 5'PFS UAA 3'PFS AGC (mixed)
RNA 1: CACCCGUGCAAAAUUGCAGGGGUCUAAAACCUUCUCCAAAUUGUUUCAUCCU
RNA 2: GGGAAUGGAUCCACAUCUACGAAUUCUAAAGGAUGAAACAAUUUGGAGAAGAGCAGAUCGGAAGAGCACACGU
B22: target 2 MT 5'PFS CGA 3'PFS AAC (mixed)
RNA 1: CACCCGUGCAAAAUUGCAGGGGUCUAAAACCUUCUCCAAAUUGUUUCAUCCU
RNA 2: GGGAAUGGAUCCACAUCUACGAAUUCCGAAGGAUGAAACAAUUUGGAGAAGAACAGAUCGGAAGAGCACACGU
B23: target 2 MT 5'PFS CUG 3'PFS UCC (mixed)
RNA 1: CACCCGUGCAAAAUUGCAGGGGUCUAAAACCUUCUCCAAAUUGUUUCAUCCU
RNA 2: GGGAAUGGAUCCACAUCUACGAAUUCCUGAGGAUGAAACAAUUUGGAGAAGUCCAGAUCGGAAGAGCACACGU
B24: target 2 MT 5'PFS CUG 3'PFS UCA (mixed)
RNA 1: CACCCGUGCAAAAUUGCAGGGGUCUAAAACCUUCUCCAAAUUGUUUCAUCCU
RNA 2: GGGAAUGGAUCCACAUCUACGAAUUCCUGAGGAUGAAACAAUUUGGAGAAGUCAAGAUCGGAAGAGCACACGU
B25: target 2 MT 5'PFS GUC 3'PFS CGC (mixed)
RNA 1: CACCCGUGCAAAAUUGCAGGGGUCUAAAACCUUCUCCAAAUUGUUUCAUCCU
RNA 2: GGGAAUGGAUCCACAUCUACGAAUUCGUCAGGAUGAAACAAUUUGGAGAAGCGCAGAUCGGAAGAGCACACGU
B26: target 2 MT 5'PFS CGA 3'PFS AAA (mixed)
RNA 1: CACCCGUGCAAAAUUGCAGGGGUCUAAAACCUUCUCCAAAUUGUUUCAUCCU
RNA 2: GGGAAUGGAUCCACAUCUACGAAUUCCGAAGGAUGAAACAAUUUGGAGAAGAAAAGAUCGGAAGAGCACACGU
B27: target 2 MT 5'PFS UAC 3'PFS CGA (mixed)
RNA 1: CACCCGUGCAAAAUUGCAGGGGUCUAAAACCUUCUCCAAAUUGUUUCAUCCU
RNA 2: GGGAAUGGAUCCACAUCUACGAAUUCUACAGGAUGAAACAAUUUGGAGAAGCGAAGAUCGGAAGAGCACACGU

The target in the data set is T1, EsCas13d, nuclease-dead. The data set can be described thus: crRNA (strand 1, pre-loaded); Mg2+; 40 mM Tris-HCl pH 7.5, 150 mM NaCl, 6 mM MgCl2, 1 mM DTT, 0.1% Tween-20, 0.2 mg/ml BSA; 25 C; 10 min per concentration, then washed. Particulars: tags: His6-TwinStrep-SUMO cleaved; N-terminal SNAP kept (SNAP-Surface 488); label: 3' end held by stalled T7 RNA polymerase.
Regarding B1, the Kd was 9.5 ± 0.32 nM.
B2 had a Kd of 58 ± 20 nM.
The molecule B3 showed a Kd of 8.4 ± 2.6 nM.
Then B4, with 3.4 ± 0.6 nM.
Turning to B5, the Kd is 4.5 ± 0.6 nM.
Then B6, with 5.4 ± 1.1 nM; and B7, with 34 ± 7 nM; and B8, with 3.6 ± 0.5 nM.
B9 yielded a Kd of 23 ± 4 nM.
In the case of B10, the affinity, expressed as Kd, was 3.1 ± 0.4 nM. Against the preceding molecule, the Kd is about 7.4-fold lower.
To B11 belongs 16.5 ± 2.6 nM; to B12, 4.6 ± 1.3 nM.
B13 yielded a Kd of 6.3 ± 0.4 nM.
In turn, B14 showed a Kd of 8.7 ± 0.7 nM.
Then B15, with 17.5 ± 2.8 nM; and B16, with 6.2 ± 0.7 nM; and B17, with 10.7 ± 1.4 nM.
Then B18, with 33 ± 4 nM; and B19, with 18.3 ± 2.1 nM; and B20, with 5.5 ± 0.8 nM.
In turn, B21 yielded a Kd of 3.2 ± 0.4 nM.
Then B22, with 7.5 ± 1.1 nM.
To B23 belongs 6.1 ± 0.5 nM.
B24 gave a Kd of 5 ± 0.6 nM.
With B25, binding was characterised by a dissociation constant (Kd) of 16.9 ± 1.3 nM. This Kd is about 3.4-fold higher than that of the molecule before.
To B26 belongs 13 ± 5 nM.
With B27, binding was characterised by a dissociation constant (Kd) of 6 ± 1.9 nM.

(Values after PMC10786891, “Massively parallel profiling of RNA-targeting CRISPR-Cas13d”.)
